Measurements: patent US20260209345A1 (IOMX THERAPEUTICS, published 2026)

Tests used:
[1] = target: T1, recombinant LILRB1 ECD (human, UniProt Q8NHL6 24-461); assay: ELISA, LILRB1 ECD binding to HLA-G-Fc
T1 construct: also called biotinylated LILRB1 ECD
Description: (§1) HLA-G inhibition was tested by ELISA. 384-well Maxisorp plates were coated with 2 ug/mL B2M-HLA-G fused to a mouse IgG2a-Fc and the plates were blocked with 2% (w/v) BSA in PBST. […] 15 ul of the antibody dilution series (300 nM to 0.3 nM) were mixed with 30 μL of the pre-mixed LILRB/Avidin-HRP solution (final antibody concentration 100 nM to 0.1 nM) and incubated for 1 h at room temperature. After three wash cycles with PBST, 20 μL of the antibody/LILRB/Avidin-HRP solution was transferred to the plate with immobilized HLA-G and incubated for 15 min at room temperature. After three wash cycles with PBST, residual LILRB binding to HLA-G was detected by developing the ELISA with TMB substrate.

[2] = target: T2, recombinant LILRB2 ECD (human, UniProt Q8N423 22-460); assay: ELISA, LILRB2 ECD binding to HLA-G-Fc
T2 construct: also called biotinylated LILRB2 ECD
T2 sequence (Q8N423 22-460 limits assumed): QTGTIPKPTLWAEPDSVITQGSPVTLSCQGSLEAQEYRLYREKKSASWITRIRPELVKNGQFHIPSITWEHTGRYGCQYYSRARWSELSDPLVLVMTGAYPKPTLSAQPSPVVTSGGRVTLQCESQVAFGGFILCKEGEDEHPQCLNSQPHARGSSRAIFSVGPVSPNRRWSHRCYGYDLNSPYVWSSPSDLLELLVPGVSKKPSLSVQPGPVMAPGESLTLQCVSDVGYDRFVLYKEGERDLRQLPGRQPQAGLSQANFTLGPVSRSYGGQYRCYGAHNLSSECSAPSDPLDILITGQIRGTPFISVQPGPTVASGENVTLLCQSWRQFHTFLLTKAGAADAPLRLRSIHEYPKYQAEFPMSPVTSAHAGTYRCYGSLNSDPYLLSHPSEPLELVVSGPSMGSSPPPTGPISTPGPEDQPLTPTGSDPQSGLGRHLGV
Description: as §1

[3] = target: T3, recombinant LILRA3 (human, UniProt Q8N6C8 24-439); assay: BLI, IgG on AHC sensor, ECD in solution
T3 construct: whole entry named; also called LILRA3 ECD; LILA3
T3 sequence (Q8N6C8 24-439 limits assumed): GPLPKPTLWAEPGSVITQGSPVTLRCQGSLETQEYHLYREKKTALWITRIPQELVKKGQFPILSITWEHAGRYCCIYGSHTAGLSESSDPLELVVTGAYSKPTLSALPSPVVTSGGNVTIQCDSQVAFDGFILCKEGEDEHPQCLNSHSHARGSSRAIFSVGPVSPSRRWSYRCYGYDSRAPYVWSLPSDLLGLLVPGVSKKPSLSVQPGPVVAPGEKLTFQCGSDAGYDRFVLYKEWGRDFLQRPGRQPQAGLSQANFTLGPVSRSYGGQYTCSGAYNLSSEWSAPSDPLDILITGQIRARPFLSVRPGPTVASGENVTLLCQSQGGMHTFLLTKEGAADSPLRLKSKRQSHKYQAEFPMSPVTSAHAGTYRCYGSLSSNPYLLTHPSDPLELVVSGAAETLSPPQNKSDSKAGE
Description: (§2) Briefly, IgGs were captured on anti-human capture (AHC) biosensors (Sartorius). […] Subsequently, the sensors were dipped into 1× Kinetics Buffer to measure the dissociation over 420 s. All sensorgrams were double referenced against 1× Kinetics Buffer and unloaded […] sensors to subtract sensor drifts and potential reference binding of the analytes. The affinities were determined by applying a 1:1 binding model.

[4] = target: T2, recombinant LILRB2 ECD; assay: BLI, IgG on AHC sensor, ECD in solution
Description: as §2

[5] = target: T1, recombinant LILRB1 ECD; assay: BLI, IgG on AHC sensor, ECD in solution
Description: as §2

[6] = target: T4, recombinant LILRA1 ECD (human, UniProt O75019 17-461); assay: BLI, IgG on AHC sensor, ECD in solution
T4 construct: whole canonical entry named; also called LILA1
T4 sequence (O75019 17-461 limits assumed): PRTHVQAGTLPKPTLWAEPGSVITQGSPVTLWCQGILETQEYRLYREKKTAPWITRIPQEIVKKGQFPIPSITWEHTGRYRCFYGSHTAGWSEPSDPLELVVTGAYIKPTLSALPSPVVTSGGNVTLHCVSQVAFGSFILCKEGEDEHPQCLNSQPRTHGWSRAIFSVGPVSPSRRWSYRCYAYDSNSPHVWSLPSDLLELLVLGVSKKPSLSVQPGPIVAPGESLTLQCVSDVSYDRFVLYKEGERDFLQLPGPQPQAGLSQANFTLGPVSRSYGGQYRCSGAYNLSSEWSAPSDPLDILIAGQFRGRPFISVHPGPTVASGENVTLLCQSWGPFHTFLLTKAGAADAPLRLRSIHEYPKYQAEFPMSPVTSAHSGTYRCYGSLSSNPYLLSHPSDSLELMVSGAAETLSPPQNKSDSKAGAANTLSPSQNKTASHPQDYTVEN
Description: as §2

T1 sequence (Q8NHL6 24-461 limits assumed): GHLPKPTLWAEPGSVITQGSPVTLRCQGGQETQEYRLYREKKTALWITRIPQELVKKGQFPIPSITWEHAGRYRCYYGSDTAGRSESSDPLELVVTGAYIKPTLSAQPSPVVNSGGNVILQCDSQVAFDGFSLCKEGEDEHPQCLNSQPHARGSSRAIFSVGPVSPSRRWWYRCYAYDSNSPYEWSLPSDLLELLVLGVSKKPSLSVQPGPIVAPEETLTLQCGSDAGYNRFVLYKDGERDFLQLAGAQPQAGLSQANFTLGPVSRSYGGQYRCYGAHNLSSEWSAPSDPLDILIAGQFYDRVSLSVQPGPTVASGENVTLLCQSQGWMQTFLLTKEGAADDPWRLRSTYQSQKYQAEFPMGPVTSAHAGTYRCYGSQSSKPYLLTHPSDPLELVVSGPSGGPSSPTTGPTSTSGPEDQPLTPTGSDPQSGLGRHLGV

| Binder | IC50 [1] [nM] | IC50 [2] [nM] | Kd [3] [nM] | Kd [4] [nM] | Kd [5] [nM] | Kd [6] [nM] |
| --- | --- | --- | --- | --- | --- | --- |
| A-003 (antibody, V domains shown, tested as IgG; also called parental antibody A-003) VH: QVQLVQSGAEVKKPGSSVKVSCKASGGTFSSYAISWVRQAPGQGLEWMGGIIPIFGTANYAQKFQGRVTITADESTSTAYMELSSLRSEDTAVYYCAKGPPVGSSSWYTDWYFDLWGRGTLVTVSS VL: SYELTQPPSVSVSPGQTASITCSGDKLGDKYASWYQQKPGQSPVLVIYQDSKRPSGIPERFSGSNSGNTATLTISGTQAEDEADYYCLSYGAHSHGVVFGGGTKLTVL | 16.5 | 65.8 | 519 | 73.1 | 99.4 | 342 |
| A-024 (antibody, V domains shown, tested as IgG) VH: QVQLVQSGAEVKKPGSSVKVSCKASGYTFTGSAMSWVRQAPGQGLEWMGGILPIFGTSVYAQKFQGRVTITADESTSTAYMELSSLRSEDTAVYYCAKGPPVGSSSWYTDWYFDLWGRGTLVTVSS VL: SYELTQPPSVSVSPGQTASITCSGDKLGDKYASWYQQKPGQSPVLVIYQDSKRPSGIPERFSGSNSGNTATLTISGTQAEDEADYYCLSYGAHSHGVVFGGGTKLTVL | 3.9 | 3.3 | 64.8 | 3.6 | 1.2 | 31.8 |
| A-023 (antibody, V domains shown, tested as IgG) VH: QVQLVQSGAEVKKPGSSVKVSCKASGYTFQQYAMSWVRQAPGQGLEWIGGIIPQFSTSVYAQKFQGRVTITADESTSTAYMELSSLRSEDTAVYYCAKGPPVGSSSWYTDWYFDLWGRGTLVTVSS VL: SYELTQPPSVSVSPGQTASITCSGDKLGDKYASWYQQKPGQSPVLVIYQDSKRPSGIPERFSGSNSGNTATLTISGTQAEDEADYYCLSYGAHSHGVVFGGGTKLTVL | 7.5 | 6.8 | 230 | 4.3 | 3.1 | 82.4 |
| A-025 (antibody, V domains shown, tested as IgG) VH: QVQLVQSGAEVKKPGSSVKVSCKASGYTFSKSAMSWVRQAPGQGLEWMGGIVPKFHTSVYAQKFQGRVTITADESTSTAYMELSSLRSEDTAVYYCAKGPPVGSSSWYTDWYFDLWGRGTLVTVSS VL: SYELTQPPSVSVSPGQTASITCSGDKLGDKYASWYQQKPGQSPVLVIYQDSKRPSGIPERFSGSNSGNTATLTISGTQAEDEADYYCLSYGAHSHGVVFGGGTKLTVL | 5.1 | 4.3 | 166 | 4.2 | 1.8 | 71.3 |
| A-021 (antibody, V domains shown, tested as IgG) VH: QVQLVQSGAEVKKPGSSVKVSCKASGGSITSYAFAWVRQAPGQGLEWMGGIIPGFYAANYAQKFQGRVTITADESTSTAYMELSSLRSEDTAVYYCAKDLGTYSSGWPYYYGMDVWGQGTTVTVSS VL: SYELTQPPSVSVSPGQTASITCSGDKLGDKYASWYQQKPGQSPVLVIYQDSKRPSGIPERFSGSNSGNTATLTISGTQAEDEADYYCQSTTHTSFVFGGGTKLTVL | 4.2 | 5 | 157 | 3.1 | 4.9 | 541 |
| A-035 (antibody, V domains shown, tested as IgG) VH: QVQLVQSGAEVKKPGSSVKVSCKASGGTFSSYAISWVRQAPGQGLEWMGGIIPIFGTANYAQKFQGRVTITADESTSTAYMELSSLRSEDTAVYYCAKDLGTYSSGWPYYYGMDVWGQGTTVTVSS VL: SYELTQPPSVSVSPGQTASITCSGDKLGDKYASWYQQKPGQSPVLVIYQDSKRPSGIPERFSGSNSGNTATLTISGTQAEDEADYYCQLSHGTLLVFGGGTKLTVL | 1.7 | 3.5 | 1250 | 30.8 | 12.9 | 734 |
| A-034 (antibody, V domains shown, tested as IgG) VH: QVQLVQSGAEVKKPGSSVKVSCKASGGTFSSYAISWVRQAPGQGLEWMGGIIPIFGTANYAQKFQGRVTITADESTSTAYMELSSLRSEDTAVYYCAKDLGTYSSGWPYYYGMDVWGQGTTVTVSS VL: SYELTQPPSVSVSPGQTASITCSGDKLGDKYASWYQQKPGQSPVLVIYQDSKRPSGIPERFSGSNSGNTATLTISGTQAEDEADYYCQLYGHTITVFGGGTKLTVL | 3.3 | 5.6 | 678 | 82.7 | 16.4 | 2690 |
